Measured values taken from article PMC10132759.

Target: GAS7b-Avitag, biotinylated (mouse) (UniProt Q60780)
Assay: BLI; BLItz; 0.1 μM biotinylated Avi-tagged GAS7b, Nck or WISH captured on streptavidin (SAX) biosensors; 0.25 μM WASP or its mutants as analyte; 10 mM tris-HCl pH 7.5, 150 mM NaCl, 1 mM EDTA; local fit to a 1:1 model, Kd = Koff/Kon; n = 3

N-WASP without a tag, sequence (Q95107 whole entry): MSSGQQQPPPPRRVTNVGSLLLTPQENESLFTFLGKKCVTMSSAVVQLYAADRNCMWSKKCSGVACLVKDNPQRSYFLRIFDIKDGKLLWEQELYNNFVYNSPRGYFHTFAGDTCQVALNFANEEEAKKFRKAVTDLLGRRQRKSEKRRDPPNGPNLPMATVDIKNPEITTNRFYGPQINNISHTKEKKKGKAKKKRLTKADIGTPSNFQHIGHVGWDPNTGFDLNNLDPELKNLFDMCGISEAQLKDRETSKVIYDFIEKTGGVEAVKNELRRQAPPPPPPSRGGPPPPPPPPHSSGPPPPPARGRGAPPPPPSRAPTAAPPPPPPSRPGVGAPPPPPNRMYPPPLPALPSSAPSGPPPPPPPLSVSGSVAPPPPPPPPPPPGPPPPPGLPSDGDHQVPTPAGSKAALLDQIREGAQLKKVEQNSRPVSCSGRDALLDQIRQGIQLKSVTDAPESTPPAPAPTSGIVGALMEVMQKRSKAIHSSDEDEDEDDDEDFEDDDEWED

Substance	Kd [nM]
WASP P359T (FLAG tag) (from UniProt P42768 1-502) (natural protein)	6.89
WASP P373S (FLAG tag) (from UniProt P42768 1-502) (natural protein)	15
WASP S339Y (FLAG tag) (from UniProt P42768 1-502) (natural protein)	7.13

Now those with a lower Kd, led by results:

Kd [nM]	Substance
4.23	N-WASP without a tag (from UniProt Q95107 1-505) (natural protein)
4.11	WASP (FLAG tag) (from UniProt P42768 1-502) (natural protein)
